Laboratory results as given in patent US20180362652A1 (Biogen, published 2018).

Assays:
[1] = biological target: T1, cynomolgus monkey BDCA2 (full-length, cell surface, E73 SNP form) (cynomolgus monkey, UniProt Q8WTT0 1-213 (human entry)); test: direct binding FACS, conditioned medium on CHO cells co-expressing BDCA2 and FcεRIγ
T1 construct: also called cyno BDCA2; surface cynomolgus monkey BDCA2
T1 chain: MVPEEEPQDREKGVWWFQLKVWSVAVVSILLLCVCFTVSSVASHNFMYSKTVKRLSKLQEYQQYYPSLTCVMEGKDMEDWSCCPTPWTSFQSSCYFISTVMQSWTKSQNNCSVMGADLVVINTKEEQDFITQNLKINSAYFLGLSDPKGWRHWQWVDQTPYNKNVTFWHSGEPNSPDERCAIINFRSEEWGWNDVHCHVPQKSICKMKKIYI
Method: Conditioned medium was assayed by direct binding FACS on stably transfected DG44 CHO cells co-expressing full-length BDCA2 and FcεRIγ cDNAs (human or cynomolgus monkey), (relevant expression vectors are human BDCA2/FcεRIγ: pEAG2456, cyno BDCA2/FcεRIγ: pEAG2668).

[2] = biological target: T2, monomeric huBDCA2 ectodomain (human, UniProt Q8WTT0 45-213); test: Octet, mAb from conditioned medium on anti-human Fc tips, monomeric huBDCA2 in solution
T2 construct: Prepared by proteolytic cleavage of the purified muIgG2a Fc-huBDCA2 fusion protein (pEAG2423); also called human BDCA2 ectodomain; human BDCA2 ECD
T2 sequence: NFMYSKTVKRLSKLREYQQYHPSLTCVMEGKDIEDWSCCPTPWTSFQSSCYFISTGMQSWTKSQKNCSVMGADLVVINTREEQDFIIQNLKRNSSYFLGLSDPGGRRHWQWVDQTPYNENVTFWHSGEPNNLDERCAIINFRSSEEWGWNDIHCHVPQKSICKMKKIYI
Method: Backmutation to the unpaired cysteine, i.e., S95C, was constructed by site-directed mutagenesis producing plasmid pYL749. Variants S95T, S95A, and S95V were constructed by site-directed mutagenesis producing plasmids pYL750, pYL751, and pYL752, respectively. The full-length light chain cDNA sequences in the resultant plasmids were confirmed by DNA sequencing. […] Conditioned medium was harvested at 2 days post-transfection. […] Conditioned medium containing the C95 variant mAbs was assayed by Octet for binding to human BDCA2 ectodomain. Antibodies from conditioned medium from transiently transfected cells were bound to anti-human Fc tips, then monomeric huBDCA2 was flowed over the Octet tips, to examine binding and dissociation.

B1: hu24F4 H2/L0 (antibody, V domains shown)
VH: EVQLVESGGGLVKPGGSLRLSCAASGFTFSTYTMSWVRQAPGKGLEWVSTISPGDSSTIYYADSVKGRFTISRDNAKNSLYLQMNSLRAEDTAVYYCARDIYYNYGAWFAYWGQGTLVTVSS
VL: AIQLTQSPSSLSASVGDRVTITCKASQSVDYDGDSYMNWYQQKPGKAPKLLIYAASTLESGVPSRFSGSGSGTDFTLTISSLQPEDFATYYCQQSNEDPRTFGQGTKVEIK
notes: Humanized variant, human IgG1/kappa, conditioned medium of 293E cells; also called H2 series of hu24F4
binding result [1]: no binding

B2: hu24F4 H1/L0 (antibody, V domains shown)
VH: EVQLVESGGGLVKPGGSLRLSCAASGFTFSTYTMSWVRQAPGKGLEWVSTISPGDSFGYYPDSVKGRFTISRDNAKNSLYLQMNSLRAEDTAVYYCARDIYYNYGAWFAYWGQGTLVTVSS
VL: AIQLTQSPSSLSASVGDRVTITCKASQSVDYDGDSYMNWYQQKPGKAPKLLIYAASTLESGVPSRFSGSGSGTDFTLTISSLQPEDFATYYCQQSNEDPRTFGQGTKVEIK
notes: Humanized variant, human IgG1/kappa, conditioned medium of 293E cells; also called H1 series of hu24F4
binding result [1]: no binding

B3: hu24F4 H4/L1 S95T (antibody, human IgG1, V domains shown)
VH: DVQLVESGGGLVKPGGSLRLSCAASGFTFSTYTMSWVRQAPGKGLEWVATISPGDSFGYYYPDSVQGRFTISRDNAKNSLYLQMNSLRAEDTAVYYCTRDIYYNYGAWFAYWGQGTLVTVSS
VL: DIQLTQSPSSLSASVGDRVTITCKASQSVDYDGDSYMNWYQQKPGKAPKLLIYAASTLESGVPSRFSGSGSGTDFTLTISSLQPEDFATYYCQQTNEDPRTFGQGTKVEIK
notes: Human IgG1/kappa; conditioned medium of 293E cells; also called H4-L1-C95T (YL750/YL746); hu24F4 H4/L1 C95T
Kd [2]: 0.392 nM | koff [2]: 0.00037 s⁻¹ | kon [2]: 944000 M⁻¹ s⁻¹

B4: hu24F4 H4/L1 S95V (antibody, human IgG1, V domains shown)
VH: DVQLVESGGGLVKPGGSLRLSCAASGFTFSTYTMSWVRQAPGKGLEWVATISPGDSFGYYYPDSVQGRFTISRDNAKNSLYLQMNSLRAEDTAVYYCTRDIYYNYGAWFAYWGQGTLVTVSS
VL: DIQLTQSPSSLSASVGDRVTITCKASQSVDYDGDSYMNWYQQKPGKAPKLLIYAASTLESGVPSRFSGSGSGTDFTLTISSLQPEDFATYYCQQVNEDPRTFGQGTKVEIK
notes: Human IgG1/kappa; conditioned medium of 293E cells; also called H4-L1-C95V (YL752/YL746)
Kd [2]: 0.323 nM | koff [2]: 0.000301 s⁻¹ | kon [2]: 933000 M⁻¹ s⁻¹

B5: hu24F4 H0/L0 (antibody, V domains shown)
VH: EVQLVESGGGLVKPGGSLRLSCAASGFTFSTYTMSWVRQAPGKGLEWVSAISGSGGSTYYADSVKGRFTISRDNAKNSLYLQMNSLRAEDTAVYYCARDIYYNYGAWFAYWGQGTLVTVSS
VL: AIQLTQSPSSLSASVGDRVTITCKASQSVDYDGDSYMNWYQQKPGKAPKLLIYAASTLESGVPSRFSGSGSGTDFTLTISSLQPEDFATYYCQQSNEDPRTFGQGTKVEIK
notes: Humanized variant, human IgG1/kappa, conditioned medium of 293E cells; also called H0 series of hu24F4
binding result [1]: no binding

B6: hu24F4 H4/L1 S95C (antibody, human IgG1, V domains shown)
VH: DVQLVESGGGLVKPGGSLRLSCAASGFTFSTYTMSWVRQAPGKGLEWVATISPGDSFGYYYPDSVQGRFTISRDNAKNSLYLQMNSLRAEDTAVYYCTRDIYYNYGAWFAYWGQGTLVTVSS
VL: DIQLTQSPSSLSASVGDRVTITCKASQSVDYDGDSYMNWYQQKPGKAPKLLIYAASTLESGVPSRFSGSGSGTDFTLTISSLQPEDFATYYCQQCNEDPRTFGQGTKVEIK
notes: Human IgG1/kappa; conditioned medium of 293E cells; also called H4-L1-S95C (YL749/YL746)
Kd [2]: 0.289 nM | koff [2]: 0.000279 s⁻¹ | kon [2]: 967000 M⁻¹ s⁻¹

B7: hu24F4 H5/L1 C95A (antibody, V domains shown)
VH: DVQLVQSGGGLVKPGGSLRLSCAASGFTFSTYTMSWVRQAPGKGLEWVATISPGDSFGYYYPDSVQGRFTISRDNAKNSLYLQMNRLRAEDTAVYYCTRDIYYNYGAWFAYWGRGTLVTVSS
VL: DIQLTQSPSSLSASVGDRVTITCKASQSVDYDGDSYMNWYQQKPGKAPKLLIYAASTLESGVPSRFSGSGSGTDFTLTISSLQPEDFATYYCQQANEDPRTFGQGTKVEIKR
notes: also called H5/L1 C95A variant
binding result [2]: binds
